The target of assay [1] is HLA-B*27:05. Description: IEDB peptide-MHC binding, purified MHC/competitive/fluorescence; filed as Kd, often an IC50 or EC50 that approximates it; ≥ and ≤ were set here for values at or beyond the usual limits of such assays.
Assay [2] concerns the target HLA-A*03:01. The assay is described as above.
Assay [3] deals with HLA-A*31:01. The description is as above.
Assay [4] deals with HLA-A*11:01. Description: IEDB peptide-MHC binding, purified MHC/direct/fluorescence; filed as Kd, often an IC50 or EC50 that approximates it; ≥ and ≤ were set here for values at or beyond the usual limits of such assays.
Assay [5] deals with HLA-A*24:03. The description is as above. The note with it: source organism: Brucella suis 1330.
In assay [6] the target is HLA-A*02:03. Described as above. The note with it: source organism: Brucella suis 1330.
Assay [7] deals with HLA-A*02:01. The description is as above. The note with it: source organism: Brucella suis 1330.
The target in assay [8] is HLA-B*15:17. The description is as above. The note with it: source organism: Brucella suis 1330.
Assay [9] deals with HLA-B*39:01. The description is as above. The note with it: source organism: Brucella suis 1330.
Assay [10] deals with HLA-B*57:01. The assay is described as above. The note with it: source organism: Brucella suis 1330.
Assay [11] concerns the target HLA-A*02:16. The assay is described as above. The note with it: source organism: Brucella suis 1330.
The target of assay [12] is HLA-A*26:01. The assay is described as above. The note with it: source organism: Brucella suis 1330.
The target of assay [13] is HLA-B*15:01. Described as above. The note with it: source organism: Brucella suis 1330.
The target of assay [14] is HLA-A*02:11. Described as above. The note with it: source organism: Brucella suis 1330.
Assay [15] addresses HLA-A*03:01. Described as above.
Assay [16] concerns the target HLA-A*02:12. The assay is described as above. The note with it: source organism: Brucella suis 1330.
In assay [17] the target is HLA-B*18:01. Described as above. The note with it: source organism: Brucella suis 1330.
Assay [18] concerns the target HLA-B*46:01. Described as above. The note with it: source organism: Brucella suis 1330.
The target of assay [19] is HLA-B*27:03. The assay is described as above. The settings on record: source organism: Brucella suis 1330.
Assay [20] concerns the target HLA-A*29:02. The description is as above. The note with it: source organism: Brucella suis 1330.
The target of assay [21] is HLA-A*02:19. Described as above. The settings on record: source organism: Brucella suis 1330.
The target in assay [22] is HLA-B*35:01. Nature of the assay: IEDB peptide-MHC binding, purified MHC/competitive/fluorescence; filed as Kd, often an IC50 or EC50 that approximates it; ≥ and ≤ were set here for values at or beyond the usual limits of such assays.
Assay [23] addresses HLA-A*26:01. The assay is described as above.
Assay [24] concerns the target HLA-A*01:01. The assay is described as above.
Assay [25] has as its target HLA-A*24:03. The description is as above. The settings on record: source organism: Vibrio cholerae 2740-80.
For assay [26], the target named is HLA-A*02:01. Described as above. The note with it: source organism: Vibrio cholerae 2740-80.
In assay [27] the target is HLA-B*15:17. Described as above. The note with it: source organism: Vibrio cholerae 2740-80.
Assay [28] deals with HLA-A*69:01. The assay is described as above. The note with it: source organism: Vibrio cholerae 2740-80.
Assay [29] deals with HLA-B*51:01. Described as above. The note with it: source organism: Vibrio cholerae 2740-80.
Assay [30] addresses HLA-B*39:01. The assay is described as above. The settings on record: source organism: Vibrio cholerae 2740-80.
Assay [31] addresses HLA-B*57:01. The assay is described as above. The note with it: source organism: Vibrio cholerae 2740-80.
The target in assay [32] is HLA-B*15:01. Described as above.
For assay [33], the target named is HLA-A*02:11. The assay is described as above. The note with it: source organism: Vibrio cholerae 2740-80.
Assay [34] concerns the target HLA-A*02:12. The assay is described as above. The note with it: source organism: Vibrio cholerae 2740-80.
For assay [35], the target named is HLA-B*18:01. The assay is described as above. The note with it: source organism: Vibrio cholerae 2740-80.
Assay [36] deals with HLA-B*46:01. The assay is described as above. The note with it: source organism: Vibrio cholerae 2740-80.
Assay [37] addresses HLA-A*68:02. Described as above. The settings on record: source organism: Vibrio cholerae 2740-80.
Assay [38] addresses HLA-B*27:03. The assay is described as above. The note with it: source organism: Vibrio cholerae 2740-80.
Assay [39] deals with HLA-A*29:02. The description is as above. The settings on record: source organism: Vibrio cholerae 2740-80.
The mark [40] stands for this setting: source organism: Powassan virus.
The mark [41] stands for this setting: source organism: Yersinia pestis Nepal516.
The mark [42] stands for this setting: source organism: Vibrio cholerae 2740-80.
Where [43] appears, read: source organism: Salmonella enterica subsp. enterica serovar Typhi.
The mark [44] stands for this setting: source organism: Escherichia coli O157:H7.

One may read the Kd as the equilibrium constant for the complex coming apart. Lower therefore signals a tighter complex. FRAQTKGKV registered a Kd in assay [1] (source organism: Escherichia coli 536) of 86.7 nM.
In the case of KLKLKGTTY, the dissociation constant (Kd) in assay [2] (setting [40]) is 68.4 nM; in assay [3] (setting [40]), 2150 nM; in [4] (setting [40]), not below 20000 nM.
For the sequence QAHMGIAGL, the Kd in assay [5] was not below 20000 nM; in assay [6], not below 20000 nM; in assay [7] it was not below 20000 nM; in assay [8], 3 nM; in assay [9], not below 20000 nM; in [10], not below 20000 nM. The Kd in [11], in assay [12], in assay [13], in assay [14], in assay [15] (source organism: Brucella suis 1330) and in assay [16] was not below 20000 nM throughout. Further, the Kd in assay [17], in assay [18], in assay [19], in [20] and in [21] was not below 20000 nM in each case.
TRALVRTGM: the Kd in assay [1] (source organism: Influenza A virus (A/swine/Italy/1509-6/97(H1N1))) is 8.3 nM.
For the sequence FVMSCKLLY, the Kd is 3.5 nM in assay [22] (setting [41]), 327 nM in assay [23] (setting [41]), 1850 nM in assay [2] (setting [41]) and 700 nM in assay [24] (setting [41]).
Turning to KRIGASLAH, the Kd in [1] (source organism: Mycobacterium tuberculosis H37Rv) amounted to 171 nM.
GKLKYRASY gave a Kd in [1] (source organism: Campylobacter jejuni subsp. jejuni NCTC 11168 = ATCC 700819) of 4410 nM.
For VMYNLWKMK, the figures for the Kd in assay [3] (source organism: Yellow fever virus) and in assay [4] (source organism: Yellow fever virus 17D) were 5.67 nM and 6.3 nM, respectively.
Consider VQPWLMVDV, for which the Kd in [25], in assay [26], in [27], in [28], in assay [29] and in assay [30] was not below 20000 nM throughout. In addition, the Kd in assay [31] was not below 20000 nM; in assay [23] (setting [42]) it was not below 20000 nM; in assay [32] (setting [42]), not below 20000 nM; in assay [33], 119 nM; in assay [2] (setting [42]) it was not below 20000 nM; in assay [34], 1170 nM. Besides, the Kd in assay [35], in assay [36], in [37], in [38] and in [39] was not below 20000 nM throughout.
Take ISANANFSY: the Kd in assay [22] (setting [43]) was 24.7 nM; in assay [32] (setting [43]), 210 nM; in assay [2] (setting [43]) it was not below 20000 nM; in assay [24] (setting [43]) it was 28.8 nM.
With MIYMGLWLK, the figures for the Kd in assay [3] (source organism: Escherichia coli O157:H7 str. Sakai), in assay [4] (setting [44]) and in assay [15] (setting [44]) were 139 nM, 4.7 nM and 118 nM, respectively.
